What all share (settings): both partners purified
The target of experiment [1] is T1, GFP-tagged WD40 domain of yeast Cdh1 (aa 241–550), for SMOR (S. cerevisiae, UniProt P53197 241-550).
T1 construct: Cdh1, S. cerevisiae, WD40 domain, aa 241-550; also called Cdh1^WD40; GFP-tagged Cdh1^WD40; source: Sf9, baculovirus, purified (StrepTrap); not shown: 2xStrep-Tag II, N-terminal, kept; GFP, C-terminal, kept
T1 sequence (looked up): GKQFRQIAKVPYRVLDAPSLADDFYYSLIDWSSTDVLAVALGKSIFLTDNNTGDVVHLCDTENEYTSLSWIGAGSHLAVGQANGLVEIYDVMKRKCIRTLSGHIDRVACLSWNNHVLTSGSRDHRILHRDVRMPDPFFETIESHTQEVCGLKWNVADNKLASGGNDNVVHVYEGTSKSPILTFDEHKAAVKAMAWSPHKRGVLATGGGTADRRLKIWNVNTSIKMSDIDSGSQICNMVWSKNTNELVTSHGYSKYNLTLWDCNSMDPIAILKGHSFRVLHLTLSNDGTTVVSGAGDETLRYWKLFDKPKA
In words: single-molecule off-rate (SMOR) assay, TIRF microscopy; target held on PEG/PEG-biotin glass by NeutrAvidin and biotinylated anti-Strep-Tag II antibody (tag on the activator); dye-labeled ligand (peptide no greater than 1 nM) in buffer C + BSA (20 mM HEPES pH 7.5, 150 mM KCl, 10% glycerol, 0.05% Tween-20, 1 mM DTT) with oxygen scavengers; mean dwell time from an exponential distribution; dwell times below 100 ms ….

Experiment [2] addresses T2, Cdh1-activated yeast APC/C (S. cerevisiae | S. cerevisiae …, UniProt P53197 1-566; P53886 1-1748; P09798 1-840; P38042 1-758; P53068 1-250).
T2 construct: Apc1 subunit of the APC/C, from yeast strain NHY13; Cdc16 subunit of the APC/C (Cdc16-TAP); Cdc27 subunit of the APC/C; Apc10/Doc1 subunit of the APC/C; only Apc1, Cdc16, Cdc27 and Apc10 are named; the yeast strain lacks endogenous Cdh1; TEV cleavage of the TAP tag may leave part of the tag on Cdc16; also called APC/C^Cdh1; not shown: 2xStrep-Tag II, N-terminal, kept; GFP, C-terminal, kept; …
Described as above.

Experiment [3] has as its target T3, WD40 domain of Cdh1 from Saccharomyces cerevisiae (aa 241–550), for anisotropy (S. cerevisiae, UniProt P53197 241-550).
T3 construct: Cdh1, S. cerevisiae, WD40 domain, aa 241-550; Cloned into pFastBac HT A; also called Cdh1^WD40; Cdh1 WD40; source: Sf9, baculovirus, purified (StrepTrap)
T3 sequence (looked up): T1 sequence (looked up)
In words: fluorescence polarisation; fluorescence anisotropy as a1, 10 nM labeled Hsl1 degron peptide with 100 µM unlabeled peptide of the other Hsl1 degron present. For orientation: Polarisation of emitted light reports the rotation of a fluorescent probe.

Experiment [4] deals with T3, WD40 domain of Cdh1 from Saccharomyces …. Description: fluorescence polarisation; fluorescence anisotropy; 10 nM C-terminally Cy5-labeled peptide mixed with increasing concentrations of purified protein (Cdh1 WD40 up to 30.6 µM); wash buffer B (50 mM Tris-HCl pH 8, 150 mM KCl, 0.5 mM EDTA, 1 mM DTT, 10% glycerol); 25 °C; one-site equilibrium fit.
For experiment [5], the target named is T4, GFP-tagged WD40 domain of human Cdh1 (aa 165–484), for SMOR (human, UniProt Q9UM11 165-484).
T4 construct: human Cdh1, WD40 domain, aa 165-484; also called hCdh1^WD40; human Cdh1^WD40; source: Sf9, baculovirus, purified (StrepTrap); not shown: 2xStrep-Tag II, N-terminal, kept; GFP, C-terminal, kept
T4 sequence (Q9UM11 165-484): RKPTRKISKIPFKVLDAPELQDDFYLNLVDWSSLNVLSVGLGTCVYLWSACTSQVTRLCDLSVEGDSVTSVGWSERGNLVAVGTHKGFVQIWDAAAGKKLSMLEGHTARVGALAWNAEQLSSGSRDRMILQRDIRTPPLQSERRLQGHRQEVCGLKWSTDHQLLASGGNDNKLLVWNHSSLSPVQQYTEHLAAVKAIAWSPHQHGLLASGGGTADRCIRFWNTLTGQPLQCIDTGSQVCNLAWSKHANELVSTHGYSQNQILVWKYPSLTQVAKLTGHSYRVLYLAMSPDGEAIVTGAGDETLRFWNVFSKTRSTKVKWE
In words: single-molecule off-rate (SMOR) assay, TIRF microscopy; target held on PEG/PEG-biotin glass by NeutrAvidin and biotinylated anti-Strep-Tag II antibody (tag on the activator); dye-labeled ligand (peptide no greater than 1 nM) in buffer C + BSA (20 mM HEPES pH 7.5, 150 mM KCl, 10% glycerol, 0.05% Tween-20, 1 mM DTT) with oxygen scavengers; mean dwell time from an exponential distribution; dwell times below 100 ms ….

For experiment [6], the target named is T5, Cdc20-activated yeast APC/C (S. cerevisiae | S. cerevisiae …, UniProt P26309 1-610; P53886 1-1748; P09798 1-840; P38042 1-758; P53068 1-250).
T5 construct: Apc1 subunit of the APC/C, from yeast strain NHY13; Cdc16 subunit of the APC/C (Cdc16-TAP); Cdc27 subunit of the APC/C; Apc10/Doc1 subunit of the APC/C; only Apc1, Cdc16, Cdc27 and Apc10 are named; TEV cleavage of the TAP tag may leave part of the tag on Cdc16; also called APC/C^Cdc20; not shown: 2xStrep-Tag II, N-terminal, kept; GFP, C-terminal, kept; copies: + + + + + + + + + + + + +
The description is as above.

In experiment [7] the target is T6, GFP-tagged WD40 domain of human Cdc20 (aa 162–484), for SMOR (human, UniProt Q12834 162-484).
T6 construct: human Cdc20, WD40 domain, aa 162-484; also called hCdc20^WD40; human Cdc20^WD40; source: Sf9, baculovirus, purified (StrepTrap); not shown: 2xStrep-Tag II, N-terminal, kept; GFP, C-terminal, kept
T6 sequence (Q12834 162-484): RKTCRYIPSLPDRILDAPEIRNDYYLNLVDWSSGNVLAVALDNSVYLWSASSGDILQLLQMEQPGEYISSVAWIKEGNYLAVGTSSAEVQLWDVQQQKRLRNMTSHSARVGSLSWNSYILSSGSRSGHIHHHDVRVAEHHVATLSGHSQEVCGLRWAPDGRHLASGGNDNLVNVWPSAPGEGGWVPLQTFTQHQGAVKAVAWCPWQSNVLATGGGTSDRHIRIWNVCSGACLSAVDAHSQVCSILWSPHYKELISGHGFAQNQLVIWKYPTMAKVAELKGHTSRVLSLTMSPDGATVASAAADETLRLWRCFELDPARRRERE
The description is as above.

Experiment [8] concerns the target T7, WD40 domain of human Cdh1 (aa 165–484), for anisotropy (human, UniProt Q9UM11 165-484).
T7 construct: human Cdh1, WD40 domain, aa 165-484; Cloned into pFastBac HT A; also called human Cdh1 WD40; source: Sf9, baculovirus, purified (StrepTrap)
In words: fluorescence polarisation; fluorescence anisotropy; 10 nM C-terminally Cy5-labeled peptide mixed with increasing concentrations of purified protein (Cdh1 WD40 up to 30.6 µM); wash buffer B (50 mM Tris-HCl pH 8, 150 mM KCl, 0.5 mM EDTA, 1 mM DTT, 10% glycerol); 25 °C; one-site equilibrium fit.

Experiment [9] addresses T8, WD40 domain of human Cdc20 (aa 162–484), for anisotropy (human, UniProt Q12834 162-484).
T8 construct: human Cdc20, WD40 domain, aa 162-484; Cloned into pFastBac HT A; also called human Cdc20 WD40; source: Sf9, baculovirus, purified (StrepTrap)
The description is as above.

Experiment [10] has as its target T1, GFP-tagged WD40 domain of yeast Cdh1 …. Description: fluorescence polarisation + other: single-molecule off-rate (SMOR) assay; inferred constants: kon from the KD of anisotropy and the koff of SMOR; KD for APC/C^Cdh1 from the dwell time with the kon of Cdh1 alone assumed.
Experiment [11] deals with T4, GFP-tagged WD40 domain of human Cdh1 …. The description is as above.
The target of experiment [12] is T2, Cdh1-activated yeast APC/C. The experiment is described as above.
Experiment [13] addresses T1, GFP-tagged WD40 domain of yeast Cdh1 …. In words: single-molecule off-rate (SMOR) assay, TIRF microscopy; target held on PEG/PEG-biotin glass by NeutrAvidin and biotinylated anti-Strep-Tag II antibody (tag on the activator); dye-labeled ligand (peptide no greater than 1 nM) in buffer C + BSA (20 mM HEPES pH 7.5, 150 mM KCl, 10% glycerol, 0.05% Tween-20, 1 mM DTT) with oxygen scavengers; mean dwell time from an exponential distribution; dwell times below 100 ms …. This is another data set of the same source.

Where “and” joins values, the source holds several entries; their conditions need not be identical. Equal values may be shown once. Where no end group is shown, it is not given here. Cy5 = cyanine-5 fluorescent label

By Kd is commonly meant the constant that tells how readily two partners part at equilibrium. The term kon denotes the rate constant with which the complex forms. As a reminder, the koff is a measure of how fast the partners let go of each other.

T8 sequence (Q12834 162-484): as above
T7 sequence (Q9UM11 165-484): as the sequence (Q9UM11 165-484) above

B1: Hsl1 fragment (amino acids 667–872) with C-terminal HaloTag, mutations in the D box (domain or fragment)
chain: QNSASKRSLYSLQSISKRSLNLNDLLVFDDPLPSKKPASENVNKSEPHSLESDSDFEILCDQILFGNALDRILEEEEDNEKERDTQRQRQNDTKSSADTFTISGVSTNKENEGPEYPTKIEKNQFNMSYKPSENMSGLSSFPIFEKENTLSSSYLEEQKPKAAAASDITASFNKMNKQEGMRIEKKIQREQLQKKNDRPSPLKPIQ
modifications: JF549 or JF646 dye covalently bound to the HaloTag
Consider B1, for which the mean dwell time is 0.421 s in experiment [1] and 0.374 s in experiment [2].
As for GVSTNKENEGPEYPTKIEK-Cy5 [Cy5-labeled Hsl1 KEN peptide], the “fold improvement of affinity with saturating unlabeled D box peptide, against no D box peptide” value in experiment [3] was approximately 4 fold. Further, the figures for the mean dwell time in experiment [1], in [2] and in experiment [5] were 0.166 s, 0.185 s and 1.48 s, respectively. Besides, the Kd in experiment [4] is 14 µM and 12 µM.
Turning to QDSKPRRALTDVPVNNNPLSQK-Cy5 [Cy5-labeled Clb5 D box peptide], the mean dwell time in experiment [6] amounted to 0.207 s; in experiment [2], 0.159 s; in experiment [7], 0.054 s.
Regarding EQKPKRAALSDITNSFNKMNK-Cy5 [Cy5-labeled Hsl1 D box peptide], the “fold improvement of affinity with unlabeled Hsl1 KEN peptide, against no KEN peptide” value in experiment [3] is approximately 3 fold. Also, the mean dwell time was 0.412 s in experiment [6]; 0.36 s in [1]; 35.3 s in experiment [2]; 1.08 s in experiment [7]; 4.52 s in experiment [5]. Besides, the Kd in experiment [8] is approximately 2 µM; in [9], approximately 2 µM; in experiment [4] it was 3.5 µM and 4 µM; in experiment [12], 0.036 µM. The kon is 800000 M⁻¹ s⁻¹ in [10] and 100000 M⁻¹ s⁻¹ in [11]. Besides, the koff in experiment [13] turned out to be 2.8 s⁻¹.
For LPKATRKALGTVNRATEKSVKK-Cy5 [Cy5-labeled AurKB D box peptide], in experiment [5], the mean dwell time turned out to be 0.202 s.
In the case of AQQQGRLPLAAKDNNRSKSFIK-Cy5 [Cy5-labeled ySecurin D box peptide], the mean dwell time in experiment [6] worked out at 1.87 s; in [2], 0.132 s.
Consider PANEDKENNIVYTGK-Cy5 [Cy5-labeled ySecurin KEN peptide], for which the Kd in experiment [4] was 26 µM and 40 µM. In addition, in experiment [5], the mean dwell time worked out at 0.869 s.
On to LIYVDKENGEPGTRK-Cy5 [Cy5-labeled hSecurin KEN box peptide], for which the mean dwell time in [5] came to 0.174 s.

(Values after publication PMC8764033, “Single-molecule analysis of specificity and multivalency in binding of short linear substrate motifs to the APC/C” (Nature Communications, 2022).)
